According to PMC11067741, “Crystal structure of human peptidylarginine deiminase type VI (PAD6) provides insights into its inactivity” (IUCrJ, 2024):

Molecular target: the molecule itself
Experiment: SEC; analytical SEC on Superdex 200 increase 5/150GL, 20 mM Tris-HCl pH 7.5, 200 mM NaCl, 1 mM TCEP; PAD6 at 1 mg/ml, 0.3 ml/min; calibrated with protein standards

B1: recombinant human peptidylarginine deiminase type VI (PAD6) V2-P694 S10E S446E (enzyme, UniProt Q6TGC4 2-694, looked up)
chain: VSVEGRAMEFQSIIHLSLDSPVHAVCVLGTEICLDLSGCAPQKCQCFTIHGSGRVLIDVANTVISEKEDATIWWPLSDPTYATVKMTSPSPSVDADKVSVTYYGPNEDAPVGTAVLYLTGIEVSLEVDIYRNGQVEMSSDKQAKKKWIWGPSGWGAILLVNCNPADVGQQLEDKKTKKVIFSEEITNLSQMTLNVQGPSCILKKYRLVLHTSKEESKKARVYWPQKDNSSTFELVLGPDQHAYTLALLGNHLKETFYVEAIAFPSAEFSGLISYSVSLVEESQDPSIPETVLYKDTVVFRVAPCVFIPCTQVPLEVYLCRELQLQGFVDTVTKLSEKSNSQVASVYEDPNRLGRWLQDEMAFCYTQAPHKTTSLILDTPQAADLDEFPMKYSLSPGIGYMIQDTEDHKVASMDSIGNLMVSPPVKVQGKEYPLGRVLIGSSFYPEAEGRAMSKTLRDFLYAQQVQAPVELYSDWLMTGHVDEFMCFIPTDDKNEGKKGFLLLLASPSACYKLFREKQKEGYGDALLFDELRADQLLSNGREAKTIDQLLADESLKKQNEYVEKCIHLNRDILKTELGLVEQDIIEIPQLFCLEKLTNIPSDQQPKRSFARPYFPDLLRMIVMGKNLGIPKPFGPQIKGTCCLEEKICCLLEPLGFKCTFINDFDCYLTEVGDICACANIRRVPFAFKWWKMVP
notes: human peptidylarginine deiminase type VI (PAD6), residues V2-P694, called a full-length construct, with the phosphomimetic mutations S10E and S446E; also called phosphomimetic PAD6; human PAD6 phosphomimic mutant; source: HEK cells, transient transfection, purified (glutathione Sepharose, TEV cleavage, reverse HisTrap, Superdex 200); not shown: His6, N-terminal, cleaved; GST, N-terminal, cleaved
- stoichiometry N: 2
